Experimental data from the RNAGym collection of RNA variant scans (doi:10.1093/molbev/msab373).

B1: Azoarcus group I ribozyme (parent)
chain: GUGCCUUGCGCCGGGAAACCACGCAAGGGAUGGUGUCAAAUUCGGCGAAACCUAAGCGCCCGCCCGGGCGUAUGGCAACGCCGAGCCAAGCUUCGGCGCCUGCGCCGAUGAAGGUGUAGAGACUAGACGGCACCCACCUAAGGCAAACGCUAUGGUGAAGGCAUAGUCCAGGGAGUGGCGAAAGUCACACAAACCGG

Variants of: B1
Experiment: reverse-splicing fitness (ratio to wild type); higher = more active; in vitro selection; Mg2+ level not given
How it was run: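 An in vitro group I ribozyme library with randomized positions was T7-transcribed and gel-purified. In triplicate, 10 pmol RNA in EPPS pH 7.5 was reacted with 50 pmoles of a 30-nt RNA substrate for 1 h at 37 °C across several added MgCl2 levels (1–48 mM), then stopped with EDTA. Products were reverse transcribed from a substrate-complementary primer, PCR-amplified and sequenced (HiSeq 4000). Fitness is a variant's read proportion after selection over that before, normalised to wild type.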

Variant | reverse-splicing fitness
GUGCCUUGCGCCGGGAAACCACGCAAGGGAUGGUGUCAAAUUCGGCGAAACCUAAGCGCCCGCCCGGGCGUAUGGCAACGCCGAGCCAAGCUUCGGCGCCUGCGCCGAUGUAGGUGUAGCGACUAGACGGCACCCACCUAAGGCAAACGAUAUGGUGAAGGCAUAGUCCAGGGAGAGGCGAAAGUCACACAAACCGG [A111U A120C C150A U176A] | 0.0374
GUGCCUUGCGCCGGGAAACCACGCAAGGGAUGGUGUCAAAUUCGGCGAAACCUAAGCGCCCGCCCGGGCGUAUGGCAACGCCGAGCCAAGCUUCGGCGCCUGCGCCGAUGUAGGUGUAGCGACUAGACGGCACCCACCUAAGGCAAACGAUAUGGUGAAGGCAUAGUCCAGGGAGCGGCGAAAGUCACACAAACCGG [A111U A120C C150A U176C] | 0.0574
GUGCCUUGCGCCGGGAAACCACGCAAGGGAUGGUGUCAAAUUCGGCGAAACCUAAGCGCCCGCCCGGGCGUAUGGCAACGCCGAGCCAAGCUUCGGCGCCUGCGCCGAUGUAGGUGUAGCGACUAGACGGCACCCACCUAAGGCAAACGAUAUGGUGAAGGCAUAGUCCAGGGAGGGGCGAAAGUCACACAAACCGG [A111U A120C C150A U176G] | 0.0118
GUGCCUUGCGCCGGGAAACCACGCAAGGGAUGGUGUCAAAUUCGGCGAAACCUAAGCGCCCGCCCGGGCGUAUGGCAACGCCGAGCCAAGCUUCGGCGCCUGCGCCGAUGUAGGUGUAGCGACUAGACGGCACCCACCUAAGGCAAACGGUAUGGUGAAGGCAUAGUCCAGGGAGUGGCGAAAGUCACACAAACCGG [A111U A120C C150G] | 0.0482
GUGCCUUGCGCCGGGAAACCACGCAAGGGAUGGUGUCAAAUUCGGCGAAACCUAAGCGCCCGCCCGGGCGUAUGGCAACGCCGAGCCAAGCUUCGGCGCCUGCGCCGAUGUAGGUGUAGCGACUAGACGGCACCCACCUAAGGCAAACGGUAUGGUGAAGGCAUAGUCAAGGGAGUGGCGAAAGUCACACAAACCGG [A111U A120C C150G C169A] | 0.00861
GUGCCUUGCGCCGGGAAACCACGCAAGGGAUGGUGUCAAAUUCGGCGAAACCUAAGCGCCCGCCCGGGCGUAUGGCAACGCCGAGCCAAGCUUCGGCGCCUGCGCCGAUGUAGGUGUAGCGACUAGACGGCACCCACCUAAGGCAAACGGUAUGGUGAAGGCAUAGUCAAGGGAGAGGCGAAAGUCACACAAACCGG [A111U A120C C150G C169A U176A] | 0.00901
GUGCCUUGCGCCGGGAAACCACGCAAGGGAUGGUGUCAAAUUCGGCGAAACCUAAGCGCCCGCCCGGGCGUAUGGCAACGCCGAGCCAAGCUUCGGCGCCUGCGCCGAUGUAGGUGUAGCGACUAGACGGCACCCACCUAAGGCAAACGGUAUGGUGAAGGCAUAGUCAAGGGAGCGGCGAAAGUCACACAAACCGG [A111U A120C C150G C169A U176C] | 0.0104
GUGCCUUGCGCCGGGAAACCACGCAAGGGAUGGUGUCAAAUUCGGCGAAACCUAAGCGCCCGCCCGGGCGUAUGGCAACGCCGAGCCAAGCUUCGGCGCCUGCGCCGAUGUAGGUGUAGCGACUAGACGGCACCCACCUAAGGCAAACGGUAUGGUGAAGGCAUAGUCAAGGGAGGGGCGAAAGUCACACAAACCGG [A111U A120C C150G C169A U176G] | 0.00573
GUGCCUUGCGCCGGGAAACCACGCAAGGGAUGGUGUCAAAUUCGGCGAAACCUAAGCGCCCGCCCGGGCGUAUGGCAACGCCGAGCCAAGCUUCGGCGCCUGCGCCGAUGUAGGUGUAGCGACUAGACGGCACCCACCUAAGGCAAACGGUAUGGUGAAGGCAUAGUCGAGGGAGUGGCGAAAGUCACACAAACCGG [A111U A120C C150G C169G] | 0.0073
GUGCCUUGCGCCGGGAAACCACGCAAGGGAUGGUGUCAAAUUCGGCGAAACCUAAGCGCCCGCCCGGGCGUAUGGCAACGCCGAGCCAAGCUUCGGCGCCUGCGCCGAUGUAGGUGUAGCGACUAGACGGCACCCACCUAAGGCAAACGGUAUGGUGAAGGCAUAGUCGAGGGAGAGGCGAAAGUCACACAAACCGG [A111U A120C C150G C169G U176A] | 0.00683
GUGCCUUGCGCCGGGAAACCACGCAAGGGAUGGUGUCAAAUUCGGCGAAACCUAAGCGCCCGCCCGGGCGUAUGGCAACGCCGAGCCAAGCUUCGGCGCCUGCGCCGAUGUAGGUGUAGCGACUAGACGGCACCCACCUAAGGCAAACGGUAUGGUGAAGGCAUAGUCGAGGGAGCGGCGAAAGUCACACAAACCGG [A111U A120C C150G C169G U176C] | 0.00491
GUGCCUUGCGCCGGGAAACCACGCAAGGGAUGGUGUCAAAUUCGGCGAAACCUAAGCGCCCGCCCGGGCGUAUGGCAACGCCGAGCCAAGCUUCGGCGCCUGCGCCGAUGUAGGUGUAGCGACUAGACGGCACCCACCUAAGGCAAACGGUAUGGUGAAGGCAUAGUCGAGGGAGGGGCGAAAGUCACACAAACCGG [A111U A120C C150G C169G U176G] | 0.00508
GUGCCUUGCGCCGGGAAACCACGCAAGGGAUGGUGUCAAAUUCGGCGAAACCUAAGCGCCCGCCCGGGCGUAUGGCAACGCCGAGCCAAGCUUCGGCGCCUGCGCCGAUGUAGGUGUAGCGACUAGACGGCACCCACCUAAGGCAAACGGUAUGGUGAAGGCAUAGUCUAGGGAGUGGCGAAAGUCACACAAACCGG [A111U A120C C150G C169U] | 0.02
GUGCCUUGCGCCGGGAAACCACGCAAGGGAUGGUGUCAAAUUCGGCGAAACCUAAGCGCCCGCCCGGGCGUAUGGCAACGCCGAGCCAAGCUUCGGCGCCUGCGCCGAUGUAGGUGUAGCGACUAGACGGCACCCACCUAAGGCAAACGGUAUGGUGAAGGCAUAGUCUAGGGAGAGGCGAAAGUCACACAAACCGG [A111U A120C C150G C169U U176A] | 0.00853
GUGCCUUGCGCCGGGAAACCACGCAAGGGAUGGUGUCAAAUUCGGCGAAACCUAAGCGCCCGCCCGGGCGUAUGGCAACGCCGAGCCAAGCUUCGGCGCCUGCGCCGAUGUAGGUGUAGCGACUAGACGGCACCCACCUAAGGCAAACGGUAUGGUGAAGGCAUAGUCUAGGGAGCGGCGAAAGUCACACAAACCGG [A111U A120C C150G C169U U176C] | 0.0162
